# Experimental data published in patent US20190023770A1.
# B1: monoclonal antibody 39.29 NWPP (antibody, V domains shown)
# VH: EVQLVESGGGVVQPGKSLRLSCAASGLTFSSYAVHWVRQAPGKGLEWVTLISYDGANQYYADSVKGRFTISRDNSKNTVYLQMNSLRPEDTAVYYCAVPGPVFGIFPPWSYFDNWGQGILVTVSS
# VL: EIVLTQSPATLSVSPGERATLSCRASQVISHNLAWYQQKPGQAPRLLIYGASTRASGIPARFSGSGSGTDYTLTITSLQSEDFAVYYCQHYSNWPPRLTFGGGTKVEIK
# B2: monoclonal antibody 39.29 NCv1 (antibody, V domains shown)
# VH: QVQLVESGGGVVQPGKSPRLSCAASGPTFSSYAVHWVRQAPGKGLEWVTLISYDGANQYYADSVKGRFTISRDNSKNTVYLQMNSLRPEDTAVYYCAVPGPVFGIFPPWSYFDNWGQGILVTVSS
# VL: EIVLTQSPATLSVSPGERATLSCRASQVISHNLAWYQQKPGQAPRLLIYGASTRASGIPARFSGSGSGTDYTLTITSLQPEDFAVYYCQHYSNWPPRLTFGGGTKVEIK
# Tests used:
# Test in all cases: cell-based or functional assay
# [1] = molecular target: hemagglutinin of influenza A virus H3N2 A/Port Chalmers/1/1973 (influenza A virus A/Port Chalmers/1/1973 (H3N2))
# [2] = molecular target: hemagglutinin of influenza A virus H3N2 A/Aichi/2/1968 (influenza A virus A/Aichi/2/1968 (H3N2)) (UniProt P03437)
# [3] = molecular target: hemagglutinin of influenza A virus H3N2 A/Hong Kong/1/1968 (influenza A virus A/Hong Kong/1/1968 (H3N2)) (UniProt Q91MA7)
Binder,in vitro IC50 (neutralization of virus infection of MDCK cells) [1] [nM],in vitro IC50 (neutralization of virus infection of MDCK cells) [2] [nM],in vitro IC50 (neutralization of virus infection of MDCK cells) [3] [nM]
B1,2.2,35,45.1
B2,2.9,35,–
